Source: publication PMC9629889

Tests used:
Test in all cases: MST; Monolith NT.115; TaMTB labelled with the protein labelling kit RED in PBS, ligand (NIb) in a concentration gradient; Kd-Fit; three repeats
[1] = target: TaMTB-His (from E. coli) (Triticum aestivum (cv. Yangmai158 cDNA))
[2] = target: TaMTB(SNP176^C) protein purified from E. coli (Triticum aestivum)
[3] = target: TaMTB(SNP176^A) protein purified from E. coli (Triticum aestivum)

B1: NIb protein purified from E. coli (natural protein)
chain: ASDILSKINNSILGFGSDLKGQLVQPITPALRTRFEALFGGGSFELVGTMNKGLIDKHTIVGENDNVHDFMREHPTFAWLQGFMDEYAPSVLNYTAYYKDLCKYNRKKHQLSFNPHELRSATAGMIRMLEDAGLTQGDVRTPQQVVSDMQWNTSAGPSYQGKKRDVCAHLSEQEVLHLAETSRQQFLACNSIGIWNGSLKAELRTIEKVEAEKTRVFTASPITSLFAMKFYVDDFNKKFYATNLKAPHTVGINKFSRGWEMLHDKLNRPGWLHGSGDGSRFDSSIDPFFFDIIKEIRKHFLPVEHHRAIDLIYDEILNTNICLANGMVIRKNVGNNSGQPSTVVDNTLVLMVSFLYAYIHKTGDHMLKKLNDRFVFVCNGDDNKFAISPEFDAEFGHDFSPELTELGLTYEFDDITDDICANPYMSLTMVRTPFGIGFSLPVERIVAIMQWAKKGGVLHSYLAGISAIYESFNTPKLFKSVYAYLLWLTEEHGSDILAAMTGTATALPIPSMLDVYRLHYGDSSIELQ
modifications: not checked
Kd [1]: 1120 nM
Kd [2]: 110 nM
Kd [3]: 730 nM
